Measured values reported in patent EP1165781B1 (ELI LILLY AND COMPANY, dated 2007).

T1: FLINT (FAS Ligand Inhibitory Protein), mature human FLINT (human, UniProt O95407 30-300)
T1 construct: also called mature FLINT; native FLINT
T1 sequence: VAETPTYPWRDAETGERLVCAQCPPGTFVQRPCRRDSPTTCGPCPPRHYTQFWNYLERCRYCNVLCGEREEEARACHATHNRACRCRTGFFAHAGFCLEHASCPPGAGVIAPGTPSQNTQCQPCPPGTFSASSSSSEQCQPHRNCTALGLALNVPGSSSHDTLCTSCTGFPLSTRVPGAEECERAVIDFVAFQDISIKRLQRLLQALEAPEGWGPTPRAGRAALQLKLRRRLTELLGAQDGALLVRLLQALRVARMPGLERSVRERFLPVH

B1: FasLigand (monomer) (ligand)
chain: QLFHLQKELAELRESTSQMHTASSLEKQIGHPSPPPEKKELRKVAHLTGKSNSRSMPLEWEDTYGIVLLSGVKYKKGGLVINETGLYFVYSKVYFRGQSCNNLPLSHKVYMRNSKYPQDLVMMEGKMMSYCTTGQMWARSSYLGAVFNLTSADHLYVNVSELSLVNFEESQTFFGLYKL
modifications: Amine-coupled through lysines to a CM5 chip.
notes: Amine-coupled to a CM5 chip; also called Fas Ligand (Kamiya Biomedical Company)

Tests used:
[1] = molecular target: FasLigand (monomer) (Homo sapiens (Human)) (UniProt P48023); assay: SPR (Biacore 2000), FasL amine-coupled to CM5 chip, Fas in solution
[2] = molecular target: T1, FLINT (FAS Ligand Inhibitory Protein), …; assay: SPR (Biacore 2000), FasL amine-coupled to CM5 chip, FLINT in solution

| Molecule | Kd [1] [nM] | Kd [2] [nM] |
| --- | --- | --- |
| Fas/Fc chimera (R&D Systems) (Fc fusion) | 162 | – |
| B1 | – | 113 |
